Experimental findings from article PMC9130954 are described below.

Assay [1] deals with Photosystem I (PSI) complex from Anabaena sp. PCC 7120, the monomeric unit of the PSI oligomers (Anabaena sp. PCC 7120 (endogenous)) (UniProt P58576). The assay can be described thus: negative staining EM, single-particle 2D class averaging; purified PSI tetramer sample, 0.15 mg/ml, 0.75% uranyl formate, 120 kV; 359 particles; PSI tetramer structure as reference.
For assay [2] the target is unchanged. The experiment in a line: negative staining EM, single-particle 2D class averaging; purified supercomplex 2 sample, 0.27 mg/ml, 0.75% uranyl formate, 120 kV; 822 particles; PSI tetramer models rigidly fitted over the 2D map.
The target is the same in assay [3]. The assay can be described thus: cryo-EM structure; PSI supercomplex 2 purified by BN-PAGE and re-extraction (buffer A with 0.03% digitonin), about 2.5 mg/ml, fos-choline-8 at 1.0 mM added before blotting; single-particle map at 7.0 Å overall, no symmetry (C1); published PSI dimer (PDB 6K61) and tetramer (PDB 6TCL) models fitted as rigid bodies.
Assay [4] has the same target. The experiment in a line: negative staining EM, single-particle 2D class averaging; purified supercomplex 1 sample, 0.19 mg/ml, 0.75% uranyl formate, 120 kV; 2,518 particles; PSI tetramer and dimer models rigidly fitted over the 2D map.

On to “Photosystem I (PSI) complex from Anabaena sp. PCC 7120, the monomeric unit of the PSI oligomers (from UniProt P58576 1-752; P58565 1-741; P58564 24-164; P58583 1-86; P58577 1-172; Q8YNB0 1-32)”, for which the stoichiometry N in assay [1] was 4; in assay [2] it was 8; in assay [3], 8; in assay [4], 6.
